Reference: paper PMC12534491

Target: T1, Tat peptide (arginine-rich motif) (HIV-1, UniProt P04608)
T1 chain: RKKRRQRRRPPQG
Assay: in-cell NMR

GGGAGCUUGAUCCCGGAAACGGUCGAUCGCUCCC (structured_RNA) [anti-Tat RNA aptamer]
binding result: binds
